Data from US20260242478A1 (published 2026).

B1: Phage-3036 (peptide)
peptide: IIPACVPPWMCSGF
notes: Peptide-180 library clone, tested as clonal phage supernatant (pIII display)
B2: Phage-3028 (peptide)
peptide: DMRRCEPIWMCVGF
B3: Phage-3031 (peptide)
peptide: WEILCKPEWMCSGF
B4: Phage-3041 (peptide)
peptide: EHLRCVPDWMCVGF
notes: as for B1
B5: Phage-3045 (peptide)
peptide: VIGWCVPQWMCSGF
notes: as for B1
B6: Phage-3056 (peptide)
peptide: IEMMCRPSWMCDWL
notes: Peptide-180 library clone, tested as clonal phage supernatant (peptide fused to pIII of the bacteriophage)
B7: Phage-3029 (peptide)
peptide: DSIMCRPAWMCAGF
B8: Phage-3055 (peptide)
peptide: PVELCRPAWMCWGF
notes: as for B6
B9: Phage-3050 (peptide)
peptide: ELYKCVPSWMCYGF
notes: as for B6
B10: Phage-3051 (peptide)
peptide: PGQVCIPEWMCTGF
notes: as for B6
B11: Phage-3046 (peptide)
peptide: VDKVCRPMWMCAGF
notes: as for B6
B12: Phage-3026 (peptide)
peptide: VDVLCVPSWMCSWL
B13: Phage-3039 (peptide)
peptide: VHNWCVPSWMCLGL
notes: as for B1
B14: Phage-3057 (peptide)
peptide: TGPVCIPKWMCFGF
notes: as for B6
B15: Phage-3061 (peptide)
peptide: ITKACIPEWMCHAF
B16: Phage-3027 (peptide)
peptide: VLPVCKPLWMCKGL
B17: Phage-3033 (peptide)
peptide: ELLMCRPAWMCDGF
notes: as for B1
B18: Phage-3060 (peptide)
peptide: EEKMCVPLWMCSGF
B19: Phage-3058 (peptide)
peptide: DWVRCVPEWMCLGF
notes: as for B6
B20: Phage-3035 (peptide)
peptide: LMPLCVPVWMCSGF
notes: as for B1
B21: Phage-3062 (peptide)
peptide: VQVLCVPSWMCHGF
B22: Phage-3040 (peptide)
peptide: DYPLCRPEWMCMGF
notes: as for B1
B23: Phage-3064 (peptide)
peptide: VVPMCSPSWMCQGF
B24: Phage-3047 (peptide)
peptide: VGNMCVPEWMCVGF
notes: as for B6
B25: Phage-3032 (peptide)
peptide: EGVVCIPEWMCKGF
B26: Phage-3038 (peptide)
peptide: VEPQCRPAWMCYGF
notes: as for B1
B27: Phage-3037 (peptide)
peptide: PAVRCEPSWMCQGF
notes: as for B1
B28: Phage-3043 (peptide)
peptide: PTVYCKPEWMCTGF
notes: as for B1
B29: Phage-3053 (peptide)
peptide: VAPSCVPLWMCVGM
notes: as for B6
B30: Phage-3052 (peptide)
peptide: DMRLCRPVWMCEGF
notes: as for B6
B31: Phage-3059 (peptide)
peptide: EFAMCRPVWMCWGF
notes: as for B6
B32: Phage-3048 (peptide)
peptide: PGHVCRPAWMCEGF
notes: as for B6
B33: Phage-3054 (peptide)
peptide: DWIRCLPAWMCTGF
notes: as for B6
B34: Phage-3044 (peptide)
peptide: SLAVCKPSWMCAGF
notes: as for B1
B35: Phage-3030 (peptide)
peptide: HHQLCKPLWMCEGF
B36: Phage-3034 (peptide)
peptide: YAHICKPSWMCDGF
notes: as for B1
B37: Phage-3063 (peptide)
peptide: VEIQCRPSWMCMGF
B38: Phage-3049 (peptide)
peptide: VNVKCTPPWMCFGF
notes: as for B6
B39: Phage-3042 (peptide)
peptide: YTMVCRPAWMCQGF
notes: as for B1

Columns and labels:
PSMA Fab [1] = target: T1, PSMA Fab; experiment: clonal phage ELISA on captured PSMA Fab pre-incubated with PSMA antigen (competitor)
T1 construct: Biotinylated and captured on neutravidin plates in the phage ELISA; also called Anti-PSMA Fab; 006 PSMA Fab
Protocol: (§1) Clonal phage were harvested as crude supernatants and screened via standard ELISAs. […] Prior to the addition of clonal phage. wells were incubated with blocking buffer and PSMA antigen or blocking buffer alone. Without washing or aspirating, clonal phage supernatants were then added to the wells and incubated for a short time. Wells were then washed followed by detection of bound phage using a horse radish conjugated anti-M13 antibody.

PSMA Fab [2] = target: T1, PSMA Fab; experiment: clonal phage ELISA on biotinylated PSMA Fab captured on neutravidin, anti-M13 HRP detection;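 also: crude clonal phage supernatants added to wells pretreated with PSMA antigen in blocking buffer or with blocking buffer only, then briefly incubated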
Protocol: as §1

PSMA Fab (006 PSMA Fab) [3] = target: T2, PSMA Fab (006 PSMA Fab); experiment: clonal phage ELISA; biotinylated PSMA Fab on neutravidin plate, blocking buffer alone; anti-M13 HRP detection;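 also: crude clonal phage supernatants added without washing to wells pretreated with blocking buffer with or without PSMA antigen, short incubation, then washed before detecting bound phage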
T2 construct: also called Anti-PSMA Fab; anti-PSMA Fab
Protocol: as §1

PSMA Fab (006 PSMA Fab) [4] = target: T2, PSMA Fab (006 PSMA Fab); experiment: clonal phage ELISA; biotinylated PSMA Fab on neutravidin plate, wells pre-incubated with PSMA antigen (competitor); anti-M13 HRP detection
Protocol: as §1

PSMA Fab (006 PSMA Fab) [5] = target: T3, PSMA Fab (006 PSMA Fab); experiment: phage ELISA; biotinylated PSMA Fab on neutravidin plate pre-incubated with PSMA antigen as competitor, clonal phage supernatant, anti-M13 HRP detection
T3 construct: also called Anti-PSMA Fab; anti-PSMA Fab
Protocol: as §1

PSMA Fab (006 PSMA Fab) [6] = target: T3, PSMA Fab (006 PSMA Fab); experiment: phage ELISA; biotinylated PSMA Fab on neutravidin plate, clonal phage supernatant, anti-M13 HRP detection; blocking buffer alone
Protocol: as §1

006 PSMA Fab [7] = target: T4, 006 PSMA Fab; experiment: clonal phage ELISA on biotinylated PSMA Fab captured on neutravidin, anti-M13 HRP detection, no competitor
T4 construct: In the phage ELISA the Fab was biotinylated and captured on neutravidin coated plates; also called Anti-PSMA Fab
Protocol: as §1

006 PSMA Fab [8] = target: T4, 006 PSMA Fab; experiment: clonal phage ELISA on biotinylated PSMA Fab captured on neutravidin, wells pre-incubated with PSMA antigen as competitor, anti-M13 HRP detection
Protocol: as §1

| Binder | Phage binding ELISA signal, Anti-PSMA Fab with PSMA antigen (PSMA Fab [1]) | Phage binding ELISA signal, Anti-PSMA Fab (PSMA Fab [2]) | Phage binding ELISA signal, Anti-PSMA Fab in the presence of PSMA antigen (PSMA Fab (006 PSMA Fab) [5]) | Phage binding ELISA signal, Anti-PSMA Fab (PSMA Fab (006 PSMA Fab) [6]) | further results |
| --- | --- | --- | --- | --- | --- |
| B1 | 0.212 | 2.18 | – | – | – |
| B2 | – | – | – | – | Phage binding ELISA signal, Anti-PSMA Fab (PSMA Fab (006 PSMA Fab) [3]): 2.19; Phage binding ELISA signal, Anti-PSMA Fab in presence of PSMA antigen (PSMA Fab (006 PSMA Fab) [4]): 0.0954 |
| B3 | – | – | – | – | Phage binding ELISA signal, Anti-PSMA Fab (PSMA Fab (006 PSMA Fab) [3]): 2.19; Phage binding ELISA signal, Anti-PSMA Fab in presence of PSMA antigen (PSMA Fab (006 PSMA Fab) [4]): 0.105 |
| B4 | 0.0886 | 2.17 | – | – | – |
| B5 | 0.113 | 2.17 | – | – | – |
| B6 | – | – | 0.0844 | 2.16 | – |
| B7 | – | – | – | – | Phage binding ELISA signal, Anti-PSMA Fab (PSMA Fab (006 PSMA Fab) [3]): 2.19; Phage binding ELISA signal, Anti-PSMA Fab in presence of PSMA antigen (PSMA Fab (006 PSMA Fab) [4]): 0.0945 |
| B8 | – | – | 0.103 | 2.16 | – |
| B9 | – | – | 0.0696 | 2.16 | – |
| B10 | – | – | 0.0874 | 2.16 | – |
| B11 | – | – | 0.126 | 2.17 | – |
| B12 | – | – | – | – | Phage binding ELISA signal, Anti-PSMA Fab (PSMA Fab (006 PSMA Fab) [3]): 2.19; Phage binding ELISA signal, Anti-PSMA Fab in presence of PSMA antigen (PSMA Fab (006 PSMA Fab) [4]): 0.0683 |
| B13 | 0.099 | 2.18 | – | – | – |
| B14 | – | – | 0.075 | 2.15 | – |
| B15 | – | – | – | – | Phage binding ELISA signal, Anti-PSMA Fab (006 PSMA Fab [7]): 2.15; Phage binding ELISA signal, Anti-PSMA Fab with PSMA antigen (006 PSMA Fab [8]): 0.0651 |
| B16 | – | – | – | – | Phage binding ELISA signal, Anti-PSMA Fab (PSMA Fab (006 PSMA Fab) [3]): 2.19; Phage binding ELISA signal, Anti-PSMA Fab in presence of PSMA antigen (PSMA Fab (006 PSMA Fab) [4]): 0.234 |
| B17 | 0.087 | 2.18 | – | – | – |
| B18 | – | – | – | – | Phage binding ELISA signal, Anti-PSMA Fab (006 PSMA Fab [7]): 2.15; Phage binding ELISA signal, Anti-PSMA Fab with PSMA antigen (006 PSMA Fab [8]): 0.0787 |
| B19 | – | – | 0.106 | 2.15 | – |
| B20 | 0.106 | 2.18 | – | – | – |

| Binder | Phage binding ELISA signal, Anti-PSMA Fab with PSMA antigen (PSMA Fab [1]) | Phage binding ELISA signal, Anti-PSMA Fab (PSMA Fab [2]) | Phage binding ELISA signal, Anti-PSMA Fab in the presence of PSMA antigen (PSMA Fab (006 PSMA Fab) [5]) | Phage binding ELISA signal, Anti-PSMA Fab (PSMA Fab (006 PSMA Fab) [6]) | further results |
| --- | --- | --- | --- | --- | --- |
| B21 | – | – | – | – | Phage binding ELISA signal, Anti-PSMA Fab (006 PSMA Fab [7]): 2.15; Phage binding ELISA signal, Anti-PSMA Fab with PSMA antigen (006 PSMA Fab [8]): 0.0688 |
| B22 | 0.0813 | 2.18 | – | – | – |
| B23 | – | – | – | – | Phage binding ELISA signal, Anti-PSMA Fab (006 PSMA Fab [7]): 2.14; Phage binding ELISA signal, Anti-PSMA Fab with PSMA antigen (006 PSMA Fab [8]): 0.0725 |
| B24 | – | – | 0.0878 | 2.17 | – |
| B25 | 0.0637 | 2.18 | – | – | – |
| B26 | 0.0668 | 2.18 | – | – | – |
| B27 | 0.161 | 2.18 | – | – | – |
| B28 | 0.0869 | 2.17 | – | – | – |
| B29 | – | – | 0.68 | 2.16 | – |
| B30 | – | – | 0.13 | 2.16 | – |
| B31 | – | – | 0.142 | 2.15 | – |
| B32 | – | – | 0.106 | 2.17 | – |
| B33 | – | – | 0.0848 | 2.16 | – |
| B34 | 0.0813 | 2.17 | – | – | – |
| B35 | – | – | – | – | Phage binding ELISA signal, Anti-PSMA Fab (PSMA Fab (006 PSMA Fab) [3]): 2.19; Phage binding ELISA signal, Anti-PSMA Fab in presence of PSMA antigen (PSMA Fab (006 PSMA Fab) [4]): 0.13 |
| B36 | 0.108 | 2.18 | – | – | – |
| B37 | – | – | – | – | Phage binding ELISA signal, Anti-PSMA Fab (006 PSMA Fab [7]): 2.14; Phage binding ELISA signal, Anti-PSMA Fab with PSMA antigen (006 PSMA Fab [8]): 0.0951 |
| B38 | – | – | 0.0865 | 2.16 | – |
| B39 | 0.0964 | 2.17 | – | – | – |
